Assay results taken from patent US20110118131A1 (published 2011).
Changes are numbered by the printed parent chain. Names and notes keep the numbering of the source.

B1: XPA23 Fab, heavy chain N104H (Fab, V domains shown)
VH: EVQLLESGGGLVQPGGSLRLSCAASGFTFSKYFMFWVRQAPGKGLEWVSVISPSGGMTRYADSVKGRFTISRDNSKNTLYLQMNSLRAEDTAVYYCARVGYGGHSDYWGQGTLVTVSS
VL: DIQMTQSPSSVSASVGDRLTIICRASQDINRWLAWYQQTPGNAPKLLIHSATSLQSGVPSRFSGSGSGTDFTLTINSLQPEDFATYYCQQADSFPLTFGGGTKVEIK
B2: XPA23 Fab, heavy chain P53F (Fab, V domains shown)
VH: B1 VH with P53F, H104N
VL: B1 VL
B3: XPA23 Fab, heavy chain P53W (Fab, V domains shown)
VH: B1 VH with P53W, H104N
VL: B1 VL
B4: XPA23 Fab, heavy chain N104W (Fab, V domains shown)
VH: B1 VH with H104W
VL: B1 VL
B5: XPA23 Fab, heavy chain N104S (Fab, V domains shown)
VH: B1 VH with H104S
VL: B1 VL
B6: XPA23 Fab, heavy chain R59D (Fab, V domains shown)
VH: B1 VH with R59D, H104N
VL: B1 VL
B7: XPA23 Fab, heavy chain N104R (Fab, V domains shown)
VH: B1 VH with H104R
VL: B1 VL
B8: XPA23 Fab, heavy chain R59S (Fab, V domains shown)
VH: B1 VH with R59S, H104N
VL: B1 VL
B9: XPA23 Fab, heavy chain P53Q (Fab, V domains shown)
VH: B1 VH with P53Q, H104N
VL: B1 VL
B10: XPA23 Fab, heavy chain P53K (Fab, V domains shown)
VH: B1 VH with P53K, H104N
VL: B1 VL
B11: XPA23 Fab, heavy chain N104K (Fab, V domains shown)
VH: B1 VH with H104K
VL: B1 VL
B12: XPA23 Fab, heavy chain R59E (Fab, V domains shown)
VH: B1 VH with R59E, H104N
VL: B1 VL
B13: XPA23 Fab, heavy chain R59K (Fab, V domains shown)
VH: B1 VH with R59K, H104N
VL: B1 VL
B14: XPA23 Fab, heavy chain S30F (Fab, V domains shown)
VH: B1 VH with S30F, H104N
VL: B1 VL
B15: XPA23 Fab, heavy chain P53S (Fab, V domains shown)
VH: B1 VH with P53S, H104N
VL: B1 VL
B16: XPA23 Fab, heavy chain S30E (Fab, V domains shown)
VH: B1 VH with S30E, H104N
VL: B1 VL
B17: XPA23 Fab, heavy chain S30K (Fab, V domains shown)
VH: B1 VH with S30K, H104N
VL: B1 VL
B18: XPA23 Fab, heavy chain R59N (Fab, V domains shown)
VH: B1 VH with R59N, H104N
VL: B1 VL
B19: XPA23 Fab, heavy chain R59H (Fab, V domains shown)
VH: B1 VH with R59H, H104N
VL: B1 VL
B20: XPA23 Fab, heavy chain P53E (Fab, V domains shown)
VH: B1 VH with P53E, H104N
VL: B1 VL
B21: XPA23 Fab, heavy chain P53H (Fab, V domains shown)
VH: B1 VH with P53H, H104N
VL: B1 VL
B22: XPA23 Fab, heavy chain S30H (Fab, V domains shown)
VH: B1 VH with S30H, H104N
VL: B1 VL
B23: XPA23 Fab, heavy chain R59Y (Fab, V domains shown)
VH: B1 VH with R59Y, H104N
VL: B1 VL
B24: XPA23 Fab, heavy chain S30D (Fab, V domains shown)
VH: B1 VH with S30D, H104N
VL: B1 VL
B25: XPA23 Fab, heavy chain R59F (Fab, V domains shown)
VH: B1 VH with R59F, H104N
VL: B1 VL
B26: XPA23 Fab, heavy chain P53N (Fab, V domains shown)
VH: B1 VH with P53N, H104N
VL: B1 VL
B27: XPA23 Fab, heavy chain N104Y (Fab, V domains shown)
VH: B1 VH with H104Y
VL: B1 VL
B28: XPA23 Fab, heavy chain P53Y (Fab, V domains shown)
VH: B1 VH with P53Y, H104N
VL: B1 VL
B29: XPA23 Fab, heavy chain R59W (Fab, V domains shown)
VH: B1 VH with R59W, H104N
VL: B1 VL
B30: XPA23 Fab, heavy chain P53D (Fab, V domains shown)
VH: B1 VH with P53D, H104N
VL: B1 VL
B31: XPA23 Fab, heavy chain N104Q (Fab, V domains shown)
VH: B1 VH with H104Q
VL: B1 VL
B32: XPA23 Fab, heavy chain R59Q (Fab, V domains shown)
VH: B1 VH with R59Q, H104N
VL: B1 VL

Target: T1, IL-1beta (UniProt P01584 117-269)
T1 construct: also called IL-1β
Assay: Biacore

| fold difference in affinity vs parental [fold] | binding result | Binder |
| --- | --- | --- |
| 0.07 | – | B1 |
| 0.05 | – | B2 |
| 0.05 | – | B3 |
| – | no binding | B4 |
| 1.02 | – | B5 |
| – | no binding | B6 |
| – | no binding | B7 |
| 0.13 | – | B8 |
| 0.03 | – | B9 |
| 0.04 | – | B10 |
| – | no binding | B11 |
| – | no binding | B12 |
| 0.94 | – | B13 |
| – | no binding | B14 |
| 0.03 | – | B15 |
| – | no binding | B16 |

| fold difference in affinity vs parental [fold] | binding result | Binder |
| --- | --- | --- |
| – | no binding | B17 |
| 0.86 | – | B18 |
| – | no binding | B19 |
| 0.03 | – | B20 |
| – | no binding | B21 |
| – | no binding | B22 |
| – | no binding | B23 |
| – | no binding | B24 |
| 0.92 | – | B25 |
| 0.06 | – | B26 |
| – | no binding | B27 |
| 0.03 | – | B28 |
| 0.09 | – | B29 |
| – | no binding | B30 |
| 0.03 | – | B31 |
| 0.86 | – | B32 |
